T1: Botryococcus braunii race B squalene synthase-like 1 (SSL-1), wild type, hexa-histidine tagged, SEQ ID NO: 2 (Botryococcus braunii, UniProt G0Y286)
T1 construct: FPP substrate with or without NADPH
T1 sequence (G0Y286 1-403): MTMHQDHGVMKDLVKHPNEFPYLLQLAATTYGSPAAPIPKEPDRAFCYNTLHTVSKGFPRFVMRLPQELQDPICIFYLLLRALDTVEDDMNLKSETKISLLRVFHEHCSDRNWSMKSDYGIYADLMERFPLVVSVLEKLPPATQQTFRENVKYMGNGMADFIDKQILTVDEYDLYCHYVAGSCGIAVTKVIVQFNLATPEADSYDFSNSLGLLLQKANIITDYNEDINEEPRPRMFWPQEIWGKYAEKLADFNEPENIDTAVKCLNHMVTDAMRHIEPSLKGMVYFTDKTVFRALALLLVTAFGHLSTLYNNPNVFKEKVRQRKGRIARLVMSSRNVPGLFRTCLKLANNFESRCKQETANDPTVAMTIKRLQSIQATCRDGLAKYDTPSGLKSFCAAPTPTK


How the values were obtained:
[1] = target: T1, Botryococcus braunii race B squalene synthase-like 1 (SSL-1), wild type, hexa-histidine tagged, SEQ ID NO: 2; experiment: Michaelis-Menten enzyme kinetics of the SSL-1 reaction (radiolabeled FPP to PSPP); format: biochemical
Description: FIG. 5 depicts Michaelis-Menten enzyme kinetics of the SSL-1 reaction. Enzyme assays (50 μl) were set up as described in the methods section with purified SSL-1 (0.2-1.0 μg), 0.1% triton X-100, ±2 mM NADPH, and the indicated concentration of ^3H-FPP. Assays were incubated for 15 min at 37° C. and stopped by addition of 50 μl 0.5 M EDTA. The reactions were then extracted 3× with 200 μl water saturated 1-butanol and pooled in a 4 ml glass screw cap vial. The butanol was evaporated with a stream of nitrogen gas and the white residue was resuspended in 2 ml of acid phosphatase solution (20% 1-propanol (v/v), 100 mM sodium acetate pH 4.7, 0.1% Triton X-100, 10 units sweet potato acid phosphatase) and incubated overnight (12-16 h) in a 28° C. shaker. […] The standards were visualized with iodine vapors and the zones corresponding to FOH (rf=0.65) and PSOH (rf=0.45) were scraped and analyzed by scintillation spectroscopy. […] The data was analyzed using the SigmaPlot Enzyme Kinetics 1.3 software. […]
Purification of the bacterial expressed enzymes was afforded by the amino-terminal hexa-histidine tag using His-Select Cobalt affinity gel (Sigma) columns according the manufacturer's recommendations. Recovery of proteins with the expected molecular sizes was determined by SDS-PAGE. […]

[2] = Secondary enzyme assays of SSL-3 or SSL-2 with PSPP versus FPP; format: biochemical; settings: 2 mM NADPH, 1 μg enzyme, 37° C., 15 min
Description: Two primary enzyme assays (500 μl) were set up with 20 μg of purified SSL-1 or Nicotiana benthamiana squalene synthase (TSS) plus 40 μM ^3H-FPP. The assays were incubated at 37° C. for 1 h, then extracted 3× with 500 μl water saturated 1-butanol, pooled, and evaporated under a stream of nitrogen gas. The white residue was resuspended in 50 μl of 25 mM NH4HCO3 in 70% ethanol (v/v). An aliquot of the resuspension was analyzed by the acid phosphatase assay (described in supplemental FIG. 4) and shown to consist of 45% and 40% PSPP for the SSL-1 and TSS primary incubations, respectively. […] It was calculated that 1 μl of each resuspension contained ˜150 pmoles of 3H-PSPP. […] For comparison, enzyme assays were also set up containing 3 μM ^3H-FPP, 2 mM NADPH and either 1 μg each of SSL-1 plus SSL-3, or SSL-1 plus SSL-2. Additional control assays contained 5 μM ^3H-FPP, 2 mM NADPH, and either 1 μg of SSL-3 or SSL-2. The reactions were incubated at 37° C. for 15 min, stopped by addition of 50 μl 0.5 M EDTA, and extracted with 100 μl n-hexane. Aliquots of the hexane extracts, along with standards of squalene and botryococcene, were separated by silica TLC using n-hexane as the developing solvent. Standards were visualized with iodine vapors and the corresponding zones were analyzed by scintillation spectroscopy. […]

[3] = Purified bacterial-expressed enzymes incubated with FPP, products by GC-MS or TLC/scintillation counting; format: biochemical; settings: FPP as substrate, enzyme assayed alone
Description: (§1) FIG. 6 depicts the functional characterization of the squalene synthase-like genes of Botryococcus braunii race B. The squalene synthase-like genes, SSL-1, SSL-2 and SSL-3, were expressed in yeast separately (SSL-1 (B), SSL-2(C) or SSL-3(D)) or in combinations (SSL-1+SSL-2(E), SSL-1+SSL-3(F)) and the hexane extractable metabolites profiled by GC-MS. The chemical profile of yeast not engineered with any gene constructs serves as the background control (A). […] Data (J) represents mean±S.E.M. obtained from three independent experiments (n=3). The chromatograms (A-I) are also annotated for the elution behavior of botryococcene (1), squalene (2), presqualene alcohol (3) and bisfarnesyl ether (4).
The recombinant vectors were transformed into E. coli strain BL21(DE3) according to the manufacturer's recommendations (Novagen). The selected lines were grown with kanamycin selection at 37° C. with vigorous shaking until the cultures reached an optical density of ˜0.8 (OD600 nm), then expression of the corresponding SSL gene induced by addition of 0.5 mM isopropylthio-β-D-galactoside (IPTG) and the cultures incubate for an additional 3 to 20 h with shaking at room temperature. One hundred ml of the culture was subject to centrifugation at 4,000 g for 10 min, the pelleted cells resuspended in 10 ml of lysis buffer containing 50 mM NaH2PO4, pH 7.8, 300 mM NaCl, 10 mM imidazole, 1 mM MgCl2, 1 mM PMSF, 1% glycerol (v/v), then sonicated 4× for 10 sec with a microprobe sonicator at 60% maximum power. The samples were cooled on ice for 2 min between sonication treatments. The sonicate was centrifuged at 16,000 g for 10 min at 4° C. and the supernatant used for purification of the hexa-histidine tagged enzymes.
Purification of the bacterial expressed enzymes was afforded by the amino-terminal hexa-histidine tag using His-Select Cobalt affinity gel (Sigma) columns according the manufacturer's recommendations. Recovery of proteins with the expected molecular sizes was determined by SDS-PAGE. The purified protein fractions were concentrated using Amicon Ultra (0.5 ml, 10K) centrifugation filter units and stored in 300 mM NaCl, 20 mM Tris-HCl pH 7.5, 5 mM dithiothreitol, 2 mM MgCL2, 50% glycerol (v/v) at −20° C. for 2-3 weeks without noticeable loss of activity.
Typical enzyme assays were initiated by mixing aliquots of purified enzyme with 50 mM Mops, pH 7.3, 20 mM MgCl2, 2.5 mM 2-mercaptoethanol, 10 μM [1-^3H]-FPP (˜2×10^5 dpm total), and 2 mM NADPH in total reaction volume of 50 μl. Reactions were incubated at 37° C. for 1 h and then extracted with 100 μl n-hexane or 100 ul MTBE. Forty μl of the n-hexane or MTBE extract was then spotted onto silica TLC plates with authentic standards of botryococcene and squalene and developed with n-hexane, or standards of bisfarnesyl ether and developed with n-hexane:MTBE, 25:1. The standards were visualized with iodine vapors and TLC zones corresponding to the standards were scrapped and analyzed by scintillation spectrometry. If Botryococcus lysate was added to enzyme assays, typically 5 μl of lysate (corresponding to 10 μg total protein) prepared from B. braunii cells according to Okada et al. (1) was added. […] Extracts were resuspended in 50 μl hexane and an aliquot analyzed by GC-MS with a Varian CP-3800 GC coupled to a Varian Saturn 2200 MS/MS (Varian Medical Systems) using a Supelco SLB-5 ms fused silica capillary column (30 m×0.25 mm×0.25 μM film thickness, Supelco). […]

TN7 yeast line = experiment: Expression of SSL genes in TN7 yeast line, hexane extractable metabolites by GC-MS; format: cell-based; settings: gene expressed separately in yeast
Description: as §1
FIG. 10 includes a comparison of botryococcene production in yeast engineered with different configurations of SSL-1 and SSL-3. Yeast line TN7 was engineered with the SSL-1 and SSL-3 genes on separate plasmids (squares), with gene fusions (SSL-1 fused to SSL-3 via a triplet repeat of GGSG (triangles), or vice versa (diamonds)), or with 63 or 71 amino acids of the carboxy terminus of the Botryococcus squalene synthase, sequences containing a membrane spanning domain, appended to the carboxy termini of the SSL-1 and SSL-3 enzymes, respectively (circles). The data represents mean±S.E.M.
The various recombinant yeast expression vectors were introduced into the TN7 yeast line via lithium acetate transformation, followed by selection for uracil and leucine auoxtrophic growth (Takahashi, et al. (2007)). […] Individual colonies of TN7 and the various TN7-transformants were subsequently grown in 25 ml of YPDE (nutrient rich) or Yeast Synthetic Drop-out medium (selection) for the indicated time at 25° C. before analyzing the cultures for production of novel triterpene components. In brief, 1 ml aliquots of the culture were combined with 1 ml of acetone, vigorously mixed, and incubated at room temperature for 10 min. One ml of hexane was added and mixed vigorously for 60 sec. […] The dried extract was resuspended in 50-500 μl of n-hexane and a 1 μl aliquot analyzed by GC-MS as described above. […]

Row | Molecule | stimulation of activity by NADPH addition ([1]; NADPH addition, radiolabeled FPP substrate) | effect of NADPH addition on enzyme activity (difference) ([1]; ±2 mM NADPH, 3H-FPP substrate, 15 min at 37° C.) | biosynthesis from PSPP versus FPP [2] | squalene or botryococcene biosynthesis by purified enzyme in vitro [3] | products accumulating in yeast (TN7 yeast line)
1 | NC(=O)C1=CN([C@@H]2O[C@H](COP(=O)(O)OP(=O)(O)OC[C@H]3O[C@@H](n4cnc5c(N)ncnc54)[C@H](OP(=O)(O)O)[C@@H]3O)[C@@H](O)[C@H]2O)C=CC1 [NADPH] | no stimulation | less than 4% |  |  | 
2 | SSL-3: Botryococcus braunii race B squalene synthase-like 3 enzyme; converts PSPP to botryococcene (protein) MKLREVLQHPGEIIPLLQMMVMAYRRKRKPQDPNLAWCWETLIKVSRSYVLVIQQLPEVLQDPICVNYLVLRGLDTLQDDMAIPAEKRVPLLLDYYNHIGDITWKPPCGYGQYVELIEEYPRVTKEFLKLNKQDQQFITDMCMRLGAEMTVFLKRDVLTVPDLDLYAFTNNGPVAICLTKLWVDRKFADPKLLDREDLSGHMAMFLGKINVIRDIKEDVLEDPPRIWWPKEIWGKYLKDLRDIIKPEYQKEALACLNDILTDALRHIEPCLQYMEMVWDEGVFKFCAVPELMSLATISVCYNNPKVFTGVVKMRRGETAKLFLSVTNMPALYKSFSAIAEEMEAKCVREDPNFALTVKRLQDVQALCKAGLAKSNGKVSAKGA |  |  | efficiently catalyze the biosynthesis of squalene and botryococcene, respectively, from PSPP but not FPP | neither bacterial-expressed, purified enzymes exhibited any botryococcene biosynthesis | did not cause the accumulation of any distinct products

Reference: patent US8822187B1, “Polypeptides, nucleic acid molecules, and methods for synthesis of triterpenes” (University of Kentucky Research Foundation, priority 2011, dated 2014)
